Source: patent US20110243928A1
Several values for one entry are separate records, joined by “and”; a condition that tells them apart may be missing. Equal values may be shown once.

Columns and labels:
[1] = target: Negative control 20 mer peptide (Mimotopes); assay: 16 mer peptide ELISA control well, control antibody diluted 32-fold
[2] = target: Positive control 20 mer peptide (Mimotopes); assay: as above
[3] = target: Negative control 20 mer peptide (Mimotopes); assay: 16 mer peptide ELISA control well, control antibody diluted 16-fold
[4] = target: Positive control 20 mer peptide (Mimotopes); assay: as above
[5] = target: Negative control 20 mer peptide (Mimotopes); assay: 16 mer peptide ELISA control well, control antibody diluted 4-fold
[6] = target: Positive control 20 mer peptide (Mimotopes); assay: as above

absorbance at 490 nm [1]: 0.072 A490 and 0.103 A490 | absorbance at 490 nm [2]: 0.739 A490 and 0.976 A490 | absorbance at 490 nm [3]: 0.08 A490 and 0.082 A490 | absorbance at 490 nm [4]: 1.2 A490 and 1.21 A490 | absorbance at 490 nm [5]: 0.077 A490 and 0.072 A490 | absorbance at 490 nm [6]: 1.5 A490 and 1.55 A490
Substance: Control Ab (Supplied with Mimotopes custom order) (antibody)
